From patent US6673357B2, “Alkaloid glycoside for use as a medicament” (University of Southampton, priority 1996, dated 2004)

Test system: ovalbumin-transfected EL4 (C57BL/6, H-2b thymoma) monoclonal murine cell line
Experiment: Cytotoxicity assay: T lymphocyte-mediated 51Cr release with spleen cells from immunised mice
Format: cell-based
Conditions: means of triplicate determinations
Procedure: Cytotoxic activity mediated by T lymphocytes was measured using the ovalbumin-transfected EL4 (C57BL/6, H-2b thymoma) monoclonal murine cell line as a target. Untransfected EL4 cells were used as negative controls. Spleen cells (3×10^7) from normal or immunised mice primed 14 days earlier were incubated with 1.5×10^6 irradiated (200 Gy) 15-12 cells (gp160 transfectants) or 3T3 cells (which served as controls) for 5 days. Target cells (1×10^6) were labelled with 100 μCi ^51Cr. Target cells were washed three times in RPMI 1640 medium, diluted to 2×10^5 cells/ml, and 50μ (10^4) of target cells added to each microtitre well containing antigen or peptide (10 μM) and preincubated for 30 min. Effector cells were resuspended in complete mdium (CM) to yield a range of effector: target (E:T) ratios. Target cells (10^4) were then incubated at different E:T ratios in a total volume of 200 μl of 10% CM for an additional 4 h. Supernatants (100 μl) were collected and counted for ^51Cr release. Spontaneous release and maximal release values were determined by incubating target cells in 10% CM alone or 0.1% Triton X-100. Percent Cytotoxicity was calculated using the formula: […]
where ER is experimental release, SR is spontaneous release and […] release. The results shown are shown in Table 4 and represent the means of triplicate determinations.

B1: antigen only: antigen (ovalbumin, OVA) given without adjuvants (protein, UniProt P01012 2-386, looked up)
Ovalbumin: GSIGAASMEFCFDVFKELKVHHANENIFYCPIAIMSALAMVYLGAKDSTRTQINKVVRFDKLPGFGDSIEAQCGTSVNVHSSLRDILNQITKPNDVYSFSLASRLYAEERYPILPEYLQCVKELYRGGLEPINFQTAADQARELINSWVESQTNGIIRNVLQPSSVDSQTAMVLVNAIVFKGLWEKAFKDEDTQAMPFRVTEQESKPVQMMYQIGLFRVASMASEKMKILELPFASGTMSMLVLLPDEVSGLEQLESIINFEKLTEWTSSNVMEERKIKVYLPRMKMEEKYNLTSVLMAMGITDVFSSSANLSGISSAESLKISQAVHAAHAEINEAGREVVGSAEAGVDAASVSEEFRADHPFLFCIKHIATNAVLFFGRCVSP
% of Cytotoxic lysis (E:T ratio 25:1): 19% | % of Cytotoxic lysis (E:T ratio 50:1): 30% | % of Cytotoxic lysis (E:T ratio 100:1): 45%
